Experimental data published in patent publication US20250263462A1 (US Dept. of Health and Human Services, published 2025).

What was measured:
Experiment in all cases: cell-based or functional assay
[1] = molecular target: T1, WT KRAS 10-mer peptide (SEQ ID NO: 30) presented by HLA-A11 on pulsed cells (human, UniProt A*11:01)
[2] = molecular target: KRAS G12V 10-mer peptide … (SEQ ID NO: 33) presented by HLA-A11 on pulsed cells (human, UniProt A*11:01)
[3] = molecular target: KRAS G12D 10-mer peptide … (SEQ ID NO: 2) presented by HLA-A11 on pulsed cells (human, UniProt A*11:01)
[4] = molecular target: HLA-A11 on COS7/A11 cells expressing the KRAS G12V minigene (23-mer SEQ ID NO: 120) (human, UniProt A*11:01)
[5] = molecular target: HLA-A11 on COS7/A11 cells expressing the KRAS G12D minigene (23-mer SEQ ID NO: 119) (human, UniProt A*11:01)
[6] = molecular target: HLA-A11 on COS7/A11 cells expressing the WT KRAS minigene (23-mer SEQ ID NO: 118) (human, UniProt A*11:01)
[7] = molecular target: T1, WT KRAS 10-mer peptide (SEQ ID NO: 30) …; remark: listed apart in the source
[8] = molecular target: WT KRAS 9-mer peptide (SEQ ID NO: 31) presented by HLA-A11 on pulsed cells (human, UniProt A*11:01)
[9] = molecular target: KRAS G12D 9-mer peptide KRAS8-16 … (SEQ ID NO: 34) presented by HLA-A11 on pulsed cells (human, UniProt A*11:01)

B1: TRAV3-3*01 + TRBV13-1*02 TCR chain pair (TCR, V domains shown)
V domain 1: GEQVEQRPPHLSVREGDSAVITCTYTDPNSYYFFWYKQEPGASLQLLMKVFSSTEINEGQGFTVLLNKKDKRLSLNLTAAHPGDSAAYFCAVSGGTNSAGNKLTFGIGTRVLVRP
V domain 2: EAAVTQSPRNKVTVTGGNVTLSCRQTNSHNYMYWYRQDTGHGLRLIHYSYGAGNLQIGDVPDGYKATRTTQEDFFLLLELASPSQTSLYFCASASWGGYAEQFFGPGTRLTVLE
IFN-γ, PBL + pulsed Cos7/A11 [1]: 47 pg/mL | IFN-γ, PBL + pulsed Cos7/A11 [2]: 44 pg/mL | IFN-γ, PBL + pulsed Cos7/A11 [3]: 49 pg/mL | IFN-γ, PBL + Cos7/A11 minigene transfectant [4]: 61 pg/mL | IFN-γ, PBL + Cos7/A11 minigene transfectant [5]: 56 pg/mL | IFN-γ, PBL + Cos7/A11 minigene transfectant [6]: 51 pg/mL

B2: TRAV19*01 + TRBV4*01 TCR chain pair (TCR, V domains shown)
V domain 1: GQQVKQSSPSLTVQEGGILILNCDYENDMFDYFAWYKKYPDNSPTLLISVRSNVDKREDGRFTVFLNKSGKHFSLHITASQPEDTAVYLCAAGDSGGSNYKLTFGKGTLLTVTP
V domain 2: ETAVFQTPNYHVTQVGNEVSFNCKQTLGHDTMYWYKQDSKKLLKIMFSYNNKQLIVNETVPRRFSPQSSDKAHLNLRIKSVEPEDSAVYLCASSRDWGPAEQFFGPGTRLTVLE
IFN-γ, PBL + pulsed Cos7/A11 [1]: 30 pg/mL | IFN-γ, PBL + pulsed Cos7/A11 [2]: 27 pg/mL | IFN-γ, PBL + pulsed Cos7/A11 [3]: 30 pg/mL | IFN-γ, PBL + Cos7/A11 minigene transfectant [4]: 30 pg/mL | IFN-γ, PBL + Cos7/A11 minigene transfectant [5]: 27 pg/mL | IFN-γ, PBL + Cos7/A11 minigene transfectant [6]: 32 pg/mL

B3: TRAV4-4/DV10*01/BV12-2*01 murine anti-KRAS G12D TCR (SEQ ID NOs: 157 and 158) (TCR, V domains shown)
V domain 1: GDQVEQSPSALSLHEGTDSALRCNFTTTMRSVQWFRQNSRGSLISLFYLASGTKENGRLKSAFDSKERRYSTLHIRDAQLEDSGTYFCAADSSNTGYQNFYFGKGTSLTVIP
V domain 2: NSGVVQSPRYIIKGKGERSILKCIPISGHLSVAWYQQTQGQELKFFIQHYDKMERDKGNLPSRFSVQQFDDYHSEMNMSALELEDSAVYFCASSLTDPLDSDYTFGSGTRLLVIE
IFN-γ, PBL + Cos7/A11 pulsed at 10^-6 M [7]: 56 pg/mL | IFN-γ, PBL + Cos7/A11 pulsed at 10^-7 M [7]: 57 pg/mL | IFN-γ, PBL + Cos7/A11 pulsed at 10^-8 M [7]: 51 pg/mL | IFN-γ, PBL + Cos7/A11 pulsed at 10^-9 M [7]: 51 pg/mL | IFN-γ, PBL + Cos7/A11 pulsed at 10^-10 M [7]: 54 pg/mL | IFN-γ, PBL + Cos7/A11 pulsed at 10^-11 M [7]: 50 pg/mL | IFN-γ, PBL + Cos7/A11 pulsed at 10^-12 M [7]: 44 pg/mL | IFN-γ, PBL + Cos7/A11 pulsed at 10^-13 M [7]: 54 pg/mL | IFN-γ, PBL + Cos7/A11 pulsed at 10^-6 M [8]: 54 pg/mL | IFN-γ, PBL + Cos7/A11 pulsed at 10^-7 M [8]: 53 pg/mL | IFN-γ, PBL + Cos7/A11 pulsed at 10^-8 M [8]: 59 pg/mL | IFN-γ, PBL + Cos7/A11 pulsed at 10^-9 M [8]: 54 pg/mL | IFN-γ, PBL + Cos7/A11 pulsed at 10^-10 M [8]: 51 pg/mL | IFN-γ, PBL + Cos7/A11 pulsed at 10^-11 M [8]: 48 pg/mL | IFN-γ, PBL + Cos7/A11 pulsed at 10^-12 M [8]: 52 pg/mL | IFN-γ, PBL + Cos7/A11 pulsed at 10^-13 M [8]: 51 pg/mL | IFN-γ, PBL + Cos7/A11 pulsed at 10^-6 M [9]: 131 pg/mL | IFN-γ, PBL + Cos7/A11 pulsed at 10^-7 M [9]: 60 pg/mL | IFN-γ, PBL + Cos7/A11 pulsed at 10^-8 M [9]: 47 pg/mL | IFN-γ, PBL + Cos7/A11 pulsed at 10^-9 M [9]: 53 pg/mL | IFN-γ, PBL + Cos7/A11 pulsed at 10^-10 M [9]: 53 pg/mL | IFN-γ, PBL + Cos7/A11 pulsed at 10^-11 M [9]: 52 pg/mL | IFN-γ, PBL + Cos7/A11 pulsed at 10^-12 M [9]: 58 pg/mL | IFN-γ, PBL + Cos7/A11 pulsed at 10^-13 M [9]: 51 pg/mL
